Legend:
UGT2B7 = molecular target: T1, UGT2B7 (Homo sapiens, UniProt P16662); assay: Glucuronidation by expressed UGT2B7
T1 sequence (P16662 24-529): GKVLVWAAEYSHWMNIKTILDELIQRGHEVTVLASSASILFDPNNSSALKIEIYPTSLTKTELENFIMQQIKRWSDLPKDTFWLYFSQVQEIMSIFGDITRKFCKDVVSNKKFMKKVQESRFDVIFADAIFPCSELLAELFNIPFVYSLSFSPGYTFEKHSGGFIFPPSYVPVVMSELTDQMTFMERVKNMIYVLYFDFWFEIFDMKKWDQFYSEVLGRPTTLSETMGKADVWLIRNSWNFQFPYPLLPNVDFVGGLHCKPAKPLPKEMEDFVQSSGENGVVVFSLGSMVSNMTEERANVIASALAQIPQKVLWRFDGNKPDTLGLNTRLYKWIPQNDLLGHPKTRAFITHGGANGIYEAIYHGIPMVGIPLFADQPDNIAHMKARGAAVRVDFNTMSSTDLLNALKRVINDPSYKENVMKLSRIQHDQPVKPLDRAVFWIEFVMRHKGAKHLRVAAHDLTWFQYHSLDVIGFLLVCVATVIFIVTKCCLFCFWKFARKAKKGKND
Experimental: (§1) The reaction was terminated by adding ice-cold acetonitrile. […] All experiments were performed in triplicate.
The gradient elution program was the same as the UPLC condition of the structural identification of wushanicaritin glucuronides above. The detection wavelength was set at 270 nm, and the injection volume was 8 µL.
(§2) The parameter were as follow. V is the formation rate of the product. Vmax is the maximal velocity. […] Ksi is the substrate inhibition constant. […] (1) V=Vmax ×[S]/Km+[S] (2) V=Vmax ×[S]/Km + [S](1+[S]/Ksi)
The contribution of individual expressed UGT enzymes to wushanicaritin glucuronidation in HLM was evaluated by the relative activity factor (RAF) approach as described in previous studies. The relative activity factor was defined as the activity ratio of HLM to an expressed UGT enzyme (Supersome) toward a probe substrate for this enzyme using Equation (3). The relative amount of wushanicaritin glucuronidation in HLM attributed to an expressed UGT enzyme was estimated by multiplying the glucuronidation activity (i.e., the intrinsic clearance) derived with this enzyme by the corresponding RAF. […] The contributions of individual UGT enzyme were calculated according to Equation (4). (3) RAF=CLint{probe,pHLM}/CLint{probe,Supersome} (4) Contribution of UGTs=CLint(wushanica ritin,UGTs)/CLint(wushanica ritin,pHLM)×RAF

[1] = Glucuronidation by pooled human liver microsomes (HLM), UDPGA-supplemented; type: in vitro ADME; conditions: probe substrate glucuronidation
Experimental: as §1, §2

not read [2] = substrate: COc1ccc(-c2oc3c(CCC(C)(C)O)c(O)cc(O)c3c(=O)c2O)cc1; assay: not read; conditions: UGT1A9, pH 7.4
Experimental: Briefly, the incubation mixture mainly contained 50 mM Tris-hydrochloric acid buffer (pH 7.4), 0.88 mM MgCl2, 22 µg/mL alamethicin, 4.4 mM saccharolactone and 3.5 mM UDPGA [32]. The reaction was terminated by adding ice-cold acetonitrile. […] The supernatant was subjected to UPLC/Q-TOF-MS (Waters Corporation, Manchester, UK) analysis. […] All experiments were performed in triplicate. Preliminary experiments were performed to ensure that the rates of glucuronidation were determined under linear conditions with respect to the incubation time and protein concentration.
Appropriate models were selected by visual inspection of the Eadie–Hofstee plot [34]. Model fitting and parameter estimation were performed by GraphPad Prism V5 software (GraphPad Software, Inc., San Diego, CA, USA).
V is the formation rate of the product. Vmax is the maximal velocity. Km is the Michaelis constant, and [S] is the substrate. Ksi is the substrate inhibition constant. The intrinsic clearance (CLint) was derived by Vmax/Km for the Michaelis–Menten and substrate inhibition models [12]. (1) V=Vmax ×[S]/Km+[S] (2) V=Vmax ×[S]/Km + [S](1+[S]/Ksi)
The contribution of individual expressed UGT enzymes to wushanicaritin glucuronidation in HLM was evaluated by the relative activity factor (RAF) approach as described in previous studies [2, 12]. The relative activity factor was defined as the activity ratio of HLM to an expressed UGT enzyme (Supersome) toward a probe substrate for this enzyme using Equation (3). The relative amount of wushanicaritin glucuronidation in HLM attributed to an expressed UGT enzyme was estimated by multiplying the glucuronidation activity (i.e., the intrinsic clearance) derived with this enzyme by the corresponding RAF. […] The contributions of individual UGT enzyme were calculated according to Equation (4). (3) RAF=CLint{probe,pHLM}/CLint{probe,Supersome} (4) Contribution of UGTs=CLint(wushanica ritin,UGTs)/CLint(wushanica ritin,pHLM)×RAF

not read [3] = substrate: CC(C)c1cccc(C(C)C)c1O; assay: not read; conditions: other: probe substrate glucuronidation; UGT1A9; pH 7.4
[4] = other: formation of G1 (3-O-glucuronide)
[5] = other: formation of G2 (7-O-glucuronide)

Molecule: Cc1cn([C@H]2C[C@H](N=[N+]=[N-])[C@@H](CO)O2)c(=O)[nH]c1=O [AZT, zidovudine, reference compound]
- Km (UGT2B7): 1600 ± 121 µM
- microsomal CLint (UGT2B7; expressed UGT2B7 (Supersome)): 0.26 ± 0.02 µL/min/mg
- microsomal CLint ([1]; human, pooled liver microsomes): 0.27 ± 0.02 µL/min/mg
- Km ([1]; human, pooled liver microsomes, read-out: Km): 4360 ± 341 µM
- Vmax [1]: 1.18 ± 0.53 nmol/min/mg

B1: expressed human UGT1A9 (Homo sapiens) (protein)
chain: GKLLVVPMDGSHWFTMRSVVEKLILRGHEVVVVMPEVSWQLGRSLNCTVKTYSTSYTLEDLDREFKAFAHAQWKAQVRSIYSLLMGSYNDIFDLFFSNCRSLFKDKKLVEYLKESSFDAVFLDPFDNCGLIVAKYFSLPSVVFARGILCHYLEEGAQCPAPLSYVPRILLGFSDAMTFKERVRNHIMHLEEHLLCHRFFKNALEIASEILQTPVTEYDLYSHTSIWLLRTDFVLDYPKPVMPNMIFIGGINCHQGKPLPMEFEAYINASGEHGIVVFSLGSMVSEIPEKKAMAIADALGKIPQTVLWRYTGTRPSNLANNTILVKWLPQNDLLGHPMTRAFITHAGSHGVYESICNGVPMVMMPLFGDQMDNAKRMETKGAGVTLNVLEMTSEDLENALKAVINDKSYKENIMRLSSLHKDRPVEPLDLAVFWVEFVMRHKGAPHLRPAAHDLTWYQYHSLDVIGFLLAVVLTVAFITFKCCAYGYRKCLGKKGRVKKAHKSKTH
- K0.5 (not read [2]; [4]): 0.32 ± 0.03 µM
- Vmax (not read [2]; [4]): 8e-05 µmol/min/mg
- Vmax/Km (not read [2]; [4]): 240 µL/min/mg
- K0.5 (not read [2]; [5]): 0.39 ± 0.06 µM
- Vmax (not read [2]; [5]): 0.00011 µmol/min/mg
- Vmax/Km (not read [2]; [5]): 270 µL/min/mg
- Km (not read [3]): 45.91 ± 5.91 µM

Reference: article PMC5618632, “In Vitro Glucuronidation of Wushanicaritin by Liver Microsomes, Intestine Microsomes and Expressed Human UDP-Glucuronosyltransferase Enzymes” (International Journal of Molecular Sciences, 2017)
